Test results taken from patent US20190375799A1 (Affibody, published 2019).
Where no end group is shown, it is not given here. The star is where a group is joined. Mal‑DOTA = maleimido-mono-amide-DOTA, O=C(O)CN1CCN(CC(=O)O)CCN(CC(=O)NCCN2C(=O)CC(*)C2=O)CCN(CC(=O)O)CC1; maleimide‑DOTA = maleimide-DOTA

Columns and labels:
[1] = molecular target: T1, albumin from cynomolgus monkey (cynomolgus monkey, UniProt A2V9Z4 25-608); assay: SPR (Biacore 2000): cynomolgus albumin immobilised to 1046 RU, PEP07986 injected at 40 nM for 5 min, then HBS-EP
T1 construct: also called CSA
T1 sequence (A2V9Z4 25-608 limits assumed): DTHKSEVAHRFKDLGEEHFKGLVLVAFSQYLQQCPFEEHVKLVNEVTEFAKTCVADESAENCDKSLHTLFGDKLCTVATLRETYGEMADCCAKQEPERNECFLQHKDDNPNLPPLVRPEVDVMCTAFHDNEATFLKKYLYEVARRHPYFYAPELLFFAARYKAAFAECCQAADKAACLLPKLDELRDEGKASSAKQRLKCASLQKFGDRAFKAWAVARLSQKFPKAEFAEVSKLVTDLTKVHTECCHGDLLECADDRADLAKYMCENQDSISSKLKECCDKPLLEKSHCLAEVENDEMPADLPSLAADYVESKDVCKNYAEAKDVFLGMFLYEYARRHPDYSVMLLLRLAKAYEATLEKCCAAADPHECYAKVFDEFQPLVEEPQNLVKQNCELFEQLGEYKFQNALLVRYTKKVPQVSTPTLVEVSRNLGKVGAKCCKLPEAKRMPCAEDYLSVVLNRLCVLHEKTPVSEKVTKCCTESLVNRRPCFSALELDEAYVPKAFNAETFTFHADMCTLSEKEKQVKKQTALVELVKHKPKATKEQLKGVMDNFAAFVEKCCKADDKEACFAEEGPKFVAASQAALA
Protocol: (§1) The albumin binding polypeptides were injected at a constant flow-rate of 50 μl/min for 5 minutes, followed by injection of HBS-EP for 60 minutes. The surfaces were regenerated with one injection of 25 μl HCl, 10 mM. All samples were run in duplicates.
(§2) After subtraction of reference surface and buffer injection, curves were fitted to a 1:1 (Langmuir) binding model using BIAevaluation software with correction for mass transfer and with RUmax set as a local parameter.

human serum albumin [2] = molecular target: T2, human serum albumin (human, UniProt P02768 25-609); assay: SPR, Biacore 2000, HSA immobilised
T2 construct: In the purification steps HSA-Sepharose (GE Healthcare) was used instead of ALBUCULT; also called HSA; ALBUCULT (Novozymes)

albumin from rat [3] = molecular target: T3, albumin from rat (rat, UniProt P02770 25-608); assay: SPR (Biacore 2000): rat albumin immobilised to 831 RU, PEP06923 injected at 40 nM for 5 min, then HBS-EP
T3 construct: also called RSA
T3 sequence (P02770 25-608 limits assumed): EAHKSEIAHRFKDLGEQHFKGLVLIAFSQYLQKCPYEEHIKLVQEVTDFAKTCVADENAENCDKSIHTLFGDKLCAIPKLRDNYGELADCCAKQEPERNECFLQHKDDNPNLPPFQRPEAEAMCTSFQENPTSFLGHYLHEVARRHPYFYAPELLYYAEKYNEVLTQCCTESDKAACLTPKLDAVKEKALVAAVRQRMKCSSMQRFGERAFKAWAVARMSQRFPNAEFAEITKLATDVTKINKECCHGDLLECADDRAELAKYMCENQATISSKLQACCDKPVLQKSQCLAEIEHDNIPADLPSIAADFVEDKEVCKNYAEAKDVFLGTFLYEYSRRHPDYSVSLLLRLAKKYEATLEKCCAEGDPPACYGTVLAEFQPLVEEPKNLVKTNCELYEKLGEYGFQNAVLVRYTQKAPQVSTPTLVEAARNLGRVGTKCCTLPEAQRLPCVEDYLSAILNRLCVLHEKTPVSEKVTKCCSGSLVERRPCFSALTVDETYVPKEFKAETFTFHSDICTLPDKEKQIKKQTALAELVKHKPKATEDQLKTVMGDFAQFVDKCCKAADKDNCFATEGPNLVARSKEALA
Protocol: as §1, §2

albumin from dog [4] = molecular target: T4, albumin from dog (dog, UniProt P49822 25-608); assay: SPR (Biacore 2000): dog albumin immobilised to 1053 RU, PEP06923 injected at 40 nM for 5 min, then HBS-EP
T4 construct: also called DSA
T4 sequence (P49822 25-608 limits assumed): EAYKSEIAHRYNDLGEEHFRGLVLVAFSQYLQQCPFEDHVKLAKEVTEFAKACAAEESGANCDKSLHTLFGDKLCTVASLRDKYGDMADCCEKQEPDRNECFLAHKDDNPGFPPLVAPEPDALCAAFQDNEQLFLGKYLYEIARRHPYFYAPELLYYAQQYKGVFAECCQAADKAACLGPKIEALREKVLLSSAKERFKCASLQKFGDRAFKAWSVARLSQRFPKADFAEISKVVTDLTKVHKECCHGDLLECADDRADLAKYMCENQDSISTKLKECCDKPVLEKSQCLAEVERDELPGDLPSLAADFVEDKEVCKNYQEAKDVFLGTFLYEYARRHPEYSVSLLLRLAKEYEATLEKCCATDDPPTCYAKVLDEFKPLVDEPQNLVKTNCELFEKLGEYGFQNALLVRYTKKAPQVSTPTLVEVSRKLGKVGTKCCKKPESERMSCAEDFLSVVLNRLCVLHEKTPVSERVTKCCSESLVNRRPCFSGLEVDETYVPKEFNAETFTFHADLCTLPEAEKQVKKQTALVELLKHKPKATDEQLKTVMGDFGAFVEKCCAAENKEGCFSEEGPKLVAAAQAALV
Protocol: as §1, §2

albumin from mouse [5] = molecular target: T5, albumin from mouse (mouse, UniProt P07724 25-608); assay: SPR (Biacore 2000): mouse albumin immobilised to 858 RU, PEP06923 injected at 40 nM for 5 min, then HBS-EP
T5 construct: also called MSA
T5 sequence (P07724 25-608 limits assumed): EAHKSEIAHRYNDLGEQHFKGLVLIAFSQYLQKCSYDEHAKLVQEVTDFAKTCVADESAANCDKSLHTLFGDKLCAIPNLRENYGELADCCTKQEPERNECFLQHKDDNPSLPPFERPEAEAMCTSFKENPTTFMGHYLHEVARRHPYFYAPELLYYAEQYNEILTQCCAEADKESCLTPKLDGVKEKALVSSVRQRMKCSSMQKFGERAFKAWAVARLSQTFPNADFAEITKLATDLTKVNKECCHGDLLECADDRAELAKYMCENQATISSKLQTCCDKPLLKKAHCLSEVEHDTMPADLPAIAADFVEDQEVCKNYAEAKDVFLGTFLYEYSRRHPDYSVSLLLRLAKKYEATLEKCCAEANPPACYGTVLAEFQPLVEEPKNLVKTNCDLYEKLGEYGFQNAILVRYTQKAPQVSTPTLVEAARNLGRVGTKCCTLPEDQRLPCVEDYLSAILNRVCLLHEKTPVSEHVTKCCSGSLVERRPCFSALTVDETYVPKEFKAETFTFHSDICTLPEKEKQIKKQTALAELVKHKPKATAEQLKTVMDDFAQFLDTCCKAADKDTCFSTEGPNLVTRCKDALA
Protocol: as §1, §2

[6] = molecular target: T1, albumin from cynomolgus monkey; assay: SPR (Biacore 2000): cynomolgus albumin immobilised to 1046 RU, PEP06923 injected at 40 nM for 5 min, then HBS-EP
Protocol: as §1, §2

albumin from rat [7] = molecular target: T3, albumin from rat; assay: SPR (Biacore 2000): rat albumin immobilised to 831 RU, PEP08296 injected at 40 nM for 5 min, then HBS-EP
Protocol: as §1, §2

albumin from dog [8] = molecular target: T4, albumin from dog; assay: SPR (Biacore 2000): dog albumin immobilised to 1053 RU, PEP08296 injected at 40 nM for 5 min, then HBS-EP
Protocol: as §1, §2

albumin from mouse [9] = molecular target: T5, albumin from mouse; assay: SPR (Biacore 2000): mouse albumin immobilised to 858 RU, PEP08296 injected at 40 nM for 5 min, then HBS-EP
Protocol: as §1, §2

human serum albumin [10] = molecular target: T2, human serum albumin; assay: SPR (Biacore 2000): human albumin immobilised to 1130 RU, PEP08296 injected at 40 nM for 5 min, then HBS-EP
Protocol: as §1, §2

[11] = molecular target: T1, albumin from cynomolgus monkey; assay: SPR (Biacore 2000): cynomolgus albumin immobilised to 1046 RU, PEP08296 injected at 40 nM for 5 min, then HBS-EP
Protocol: as §1, §2

B1: PEP07986 (designed binder)
chain: GSLAEAKEAANAELDSYGVSDFYKRLIDKAKTVEGVEALKDAILAALP
binding result [1]: binds

B2: PEP07975 (designed binder)
chain: ALASAKEAANAELDC(maleimide‑DOTA)YGVSDFYKRLIDKAKTVEGVEALKDAILAALP-NH2
notes: Made by solid phase peptide synthesis; also called DOTA-conjugated PEP07834; maleimide-DOTA-conjugated PEP07834-amide
binding result (human serum albumin [2]): binds

B3: PEP06923 (designed binder)
chain: GSSLAEAKVLANRELDKYGVSDFYKRLINKAKTVEGVEALKLHILAALP
notes: Expressed as MGSS-[PP###]; also called non-inventive polypeptide
binding result (albumin from rat [3]): binds
binding result (albumin from dog [4]): binds
binding result (albumin from mouse [5]): binds
binding result [6]: binds

B4: PEP08296 (designed binder)
chain: GSLAEAKEAANAELDC(Mal‑DOTA)YGVSDFYKRLIDKAKTVEGVEALKDAILAALPG
notes: also called DOTA-conjugated PEP08185
binding result (albumin from rat [7]): binds
binding result (albumin from dog [8]): binds
binding result (albumin from mouse [9]): binds
binding result (human serum albumin [10]): binds
binding result [11]: binds
